Laboratory results: publication PMC11140114, “Nanobodies as novel tools to monitor the mitochondrial fission factor Drp1” (Life Science Alliance, 2024)

What was measured:
[1] = target: recombinant human dynamin-related protein 1 (Drp1), isoform 1 (Homo sapiens, isoform 1, UniProt O00429)
[2] = target: T1, GFP-labelled Drp1 deletion construct GTPase (Homo sapiens, UniProt O00429); experiment: pull-down; domain mapping: D7 or D63 nanotrap (Nb on NHS-sepharose) incubated overnight at 4°C with soluble protein fractions of HEK293 cells transiently expressing GFP-labelled Drp1 constructs; immunoblot with anti-GFP; conditions: one partner purified
T1 construct: Drp1 (DNM1L), human; also called N-terminal GTPase domain; source: HEK293, transiently transfected, soluble protein fraction

[3] = target: T2, GFP-labelled Drp1 deletion construct GTPase-MD (Homo sapiens, UniProt O00429); experiment: as above; conditions: one partner purified
T2 construct: Drp1 (DNM1L), human; source: HEK293, transiently transfected, soluble protein fraction

[4] = target: T3, GFP-labelled Drp1 deletion construct GTPase-MD-VD (Homo sapiens, UniProt O00429); experiment: as above; conditions: one partner purified
T3 construct: Drp1 (DNM1L), human; source: HEK293, transiently transfected, soluble protein fraction

[5] = target: T4, Drp1 isoform 2, endogenous in HeLa cells (Homo sapiens (HeLa), UniProt O00429-3, strain); experiment: affinity purification with mass spectrometry; D7 and D63 nanotraps against GFP-Trap, soluble protein fractions of HEK293, HeLa and U2OS cells, three replicates; label-free quantification; Drp1 captured by the immobilised Nb; conditions: one partner purified
T4 construct: also called isoform 2 of Drp1; source: endogenous, HeLa soluble protein fraction

Sequence of recombinant human dynamin-related protein 1 (Drp1), isoform 1 (O00429 whole entry, canonical isoform): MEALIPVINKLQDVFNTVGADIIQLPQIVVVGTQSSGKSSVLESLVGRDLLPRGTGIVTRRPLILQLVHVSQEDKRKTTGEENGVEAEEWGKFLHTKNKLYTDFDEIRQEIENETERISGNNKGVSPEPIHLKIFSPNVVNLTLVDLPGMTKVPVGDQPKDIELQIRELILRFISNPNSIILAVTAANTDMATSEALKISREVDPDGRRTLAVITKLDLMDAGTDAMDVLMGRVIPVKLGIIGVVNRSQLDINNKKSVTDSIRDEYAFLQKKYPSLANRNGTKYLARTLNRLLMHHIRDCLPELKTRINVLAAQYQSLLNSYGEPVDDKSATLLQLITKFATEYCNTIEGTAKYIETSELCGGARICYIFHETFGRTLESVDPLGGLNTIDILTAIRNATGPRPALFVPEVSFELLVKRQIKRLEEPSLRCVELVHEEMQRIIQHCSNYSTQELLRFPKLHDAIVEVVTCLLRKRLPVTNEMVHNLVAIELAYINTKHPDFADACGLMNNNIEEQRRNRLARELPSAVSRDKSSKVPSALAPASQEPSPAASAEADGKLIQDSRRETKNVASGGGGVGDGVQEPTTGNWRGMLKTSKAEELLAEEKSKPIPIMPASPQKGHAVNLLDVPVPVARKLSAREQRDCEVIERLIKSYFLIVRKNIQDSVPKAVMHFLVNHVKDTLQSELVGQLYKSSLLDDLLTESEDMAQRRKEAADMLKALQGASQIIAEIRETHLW

B1: D258 (VHH)
VHH: EVQLQESGGESVQPGGSLRLSCVVSGTTFSTVAMGWYREVPGKKRELVARISSRGVTFYSDSVEGRFTISKDNDKSTLYLQMNSLETEDTAMYFCAAAGNSEVVLFRPKYWGQGTPVTVSS
Question: Does B1 bind [1]?
Answer: Result: binds

B2: D187 (VHH)
VHH: HVQLVESGGGLVQAGESLKLSCVASGIPFSSRAMGWYRQTPGKDRELVARISVRGVTFYADSVTGRFAISRDNDRSTLYLQMNSLKSEDTAIYFCAAGDNTQTVLTRPAHWGQGTQVTVSS
Question: Does B2 bind [1]?
Answer: Result: binds

B3: D219 (VHH)
chain: QVQLVESGGGMVQSGGSLSLSCAASGFAFSLYEMSWIRQAQGRGPEWVASINPGSSRTYYTDSVKGRFTISRDNDKNILYLKMNSLKPEDTALYYCARGRTLGIGISSDKGSQVTVSS
Question: Does B3 bind [1]?
Answer: Result: binds

B4: D49 (VHH)
VHH: EVQLVESGGGWVQPGGSLRLSCSASGFTFRDYVMTWVRQTPGRGLEWVSAIDGSGSKINYLDSVKGRFTISRDNTQAMLYLQMNSLRPDDTAVYYCARKGRGGLGEGTYWGKGTQVTVSS
Question: Does B4 bind [1]?
Answer: Result: binds

B5: Drp1-specific nanobody D7 (VHH)
VHH: QVQLVESGGGLVQPGGSLRLSCVASGFDFSTYSMTWHRQVLGKERELVASITPGGSRTNVADSVKGRFTISRDNAKNMLYLQMDRLKPEDTGMYYCAQGGYYAEPDYWGKGTRVTVSS
notes: Selected by phage display from an immunised alpaca; also called D7 Nb; D7 nanotrap (immobilised on NHS-sepharose); source: E. coli periplasmic extract for the protein ELISA
Question: Does B5 bind [2]?
Answer: Result: binds

Question: Does B5 bind [3]?
Answer: Result: binds

Question: Does B5 bind [4]?
Answer: Result: binds

Question: Does B5 bind [5]?
Answer: Result: binds

B6: D246 (VHH)
VHH: EVQLVESGGGLAQPGGSLRLSCAASGPTDNIYTMGWYRQPPGQSRQFVASVVWSTGVKAYAKFVGGRFRITKDSAKRTVDLQMDSLQPEDTAIYFCNLNDRVTPMSERDYWGQGTPVTVSS
Question: Does B6 bind [1]?
Answer: Result: binds

B7: D193 (VHH)
VHH: EVQLVDSGGGLVQSGGSLTLACAASVSIDEFPAMTWYRQATGKQRELVGVITKGGATKLADSAKGRFTISRDNAKNMVYLQMTSLKPDDTAVYYCSVPNKVMGWGPDDWWGQGSQVTVSS
Question: Does B7 bind [1]?
Answer: Result: binds

B8: Drp1-specific nanobody D63 (VHH)
VHH: QVQLVESGGDLVQPGGSLKLSCAVSGVSDSLSSFYLMAWHRQAPGKQREMIADIVSGKATYADSVKGRFTISRDNAENTAYLQMNSLKPEDTAVYYCNVLIQNRSTFQSYWGQGTQVTVSS
notes: Selected by phage display from an immunised alpaca; also called D63 Nb; D63 nanotrap (immobilised on NHS-sepharose); source: E. coli periplasmic extract for the protein ELISA
Question: Does B8 bind [5]?
Answer: Result: binds
